Assays:
[1] = biological target: the molecule itself; test: crystal structure; T8^Y140F with Ac-CoA bound, 1.7 Å, space group P2_(1); a dimer in the asymmetric unit
[2] = biological target: the molecule itself; test: SEC-MALS; size-exclusion chromatography with multi-angle laser light scattering (SEC-MALLS), in solution

Protein | binding result [1] | stoichiometry N [2]
TacT^Y140F (tRNA-acetylating toxin, Y140F mutant) (enzyme, also called T8^Y140F; source: purified; produced in the absence of its antitoxin A8 (E. coli expression strain BL21)) MGRVTAPEPLSAFHQVAEFVSGEAVLDDWLKQKGLKNQALGAARTFVVCKKDTKQVAGFYSLATGSVNHTEATGNLRRNMPDPIPVIILARLAVDLSFHGKGLGADLLHDAVLRCYRVAENIGVRAIMVHALTEEAKNFFIHHGFKSSQTQQRTLFLRLPQ | binds | –
TacT (tRNA-acetylating toxin), wild type (enzyme, also called T8; the toxin) MGRVTAPEPLSAFHQVAEFVSGEAVLDDWLKQKGLKNQALGAARTFVVCKKDTKQVAGFYSLATGSVNHTEATGNLRRNMPDPIPVIILARLAVDLSFHGKGLGADLLHDAVLRCYRVAENIGVRAIMVHALTEEAKNFYIHHGFKSSQTQQRTLFLRLPQ | – | 2

Source: publication PMC4942678, “A Salmonella Toxin Promotes Persister Formation through Acetylation of tRNA” (Molecular Cell, 2016)
